Experimental data taken from paper PMC8674358.
Several values for one entry are separate records, joined by “and”; a condition that tells them apart may be missing. Equal values may be shown once.

Tests used:
[1] = target: IRE1-KR-0P: human IRE1α kinase-endoribonuclease module (residues G547-L977), unphosphorylated (human) (UniProt O75460); assay: cross-linking; 1 μg IRE1-KR (~0.8 μM) or various concentrations in RNA cleavage buffer (20 mM HEPES pH 7.5, 50 mM K acetate, 1 mM Mg acetate, 0.05% Triton X-100), 250 μM DSS, 1 h on ice; SDS-PAGE and IRE1α immunoblot; also with CRUK-3 (5 µM), which augmented KR-0P dimerization and oligomerization
[2] = target: IRE1-KR-3P: human IRE1α kinase-endoribonuclease module (residues G547-L977), fully phosphorylated (human) (UniProt O75460); assay: as above

Row | stoichiometry N [1] | stoichiometry N [2] | Substance
1 | 2 |  | IRE1-KR-0P: human IRE1α kinase-endoribonuclease module (residues G547-L977), unphosphorylated (from UniProt O75460 547-977) (domain or fragment)
2 |  | 2 and 4 and 6 | IRE1-KR-3P: human IRE1α kinase-endoribonuclease module (residues G547-L977), fully phosphorylated (from UniProt O75460 547-977) (domain or fragment)
